Results reported in the Human Domainome abundance scans (Beltran et al. 2025).
± gives the uncertainty stated by the source.

B1: Myocardin-related transcription factor A, residues 341 to 383; numbered along this chain, Q969V6 (parent)
chain: GALPANLDDMKVAELKQELKLRSLPVSGTKTELIERLRAYQDQ

Variants of: B1
Experiment: abundance fitness (aPCA) (normalised: wild type 0, dead -1); higher = more abundant; growth selection in yeast, the domain comes from the species named
Settings: Homo sapiens

Variant	abundance fitness
GALPANLKDMKVAELKQELKLRSLPVSGTKTELIERLRAYQDQ [D8K]	-0.018 ± 0.077
GALPANLTDMKVAELKQELKLRSLPVSGTKTELIERLRAYQDQ [D8T]	-0.129 ± 0.095
GALPANLQDMKVAELKQELKLRSLPVSGTKTELIERLRAYQDQ [D8Q]	0.146 ± 0.15
GALPANLNDMKVAELKQELKLRSLPVSGTKTELIERLRAYQDQ [D8N]	-0.009 ± 0.38
GALPANLGDMKVAELKQELKLRSLPVSGTKTELIERLRAYQDQ [D8G]	0.183 ± 0.063
GALPANLVDMKVAELKQELKLRSLPVSGTKTELIERLRAYQDQ [D8V]	0.048 ± 0.075
GALPANLSDMKVAELKQELKLRSLPVSGTKTELIERLRAYQDQ [D8S]	-0.124 ± 0.12
GALPANLDVMKVAELKQELKLRSLPVSGTKTELIERLRAYQDQ [D9V]	0.153 ± 0.079
GALPANLDTMKVAELKQELKLRSLPVSGTKTELIERLRAYQDQ [D9T]	0.243 ± 0.11
GALPANLDMMKVAELKQELKLRSLPVSGTKTELIERLRAYQDQ [D9M]	0.019 ± 0.18
GALPANLDLMKVAELKQELKLRSLPVSGTKTELIERLRAYQDQ [D9L]	-0.026 ± 0.07
GALPANLDWMKVAELKQELKLRSLPVSGTKTELIERLRAYQDQ [D9W]	-0.139 ± 0.076
GALPANLDPMKVAELKQELKLRSLPVSGTKTELIERLRAYQDQ [D9P]	-0.416 ± 0.25
GALPANLDEMKVAELKQELKLRSLPVSGTKTELIERLRAYQDQ [D9E]	0.273 ± 0.077
GALPANLDAMKVAELKQELKLRSLPVSGTKTELIERLRAYQDQ [D9A]	0.203 ± 0.11
GALPANLDKMKVAELKQELKLRSLPVSGTKTELIERLRAYQDQ [D9K]	0.404 ± 0.15
GALPANLDNMKVAELKQELKLRSLPVSGTKTELIERLRAYQDQ [D9N]	0 ± 0.18
GALPANLDCMKVAELKQELKLRSLPVSGTKTELIERLRAYQDQ [D9C]	0.014 ± 0.1
GALPANLDSMKVAELKQELKLRSLPVSGTKTELIERLRAYQDQ [D9S]	0.159 ± 0.065
GALPANLDQMKVAELKQELKLRSLPVSGTKTELIERLRAYQDQ [D9Q]	0.085 ± 0.077

Variant	abundance fitness
GALPANLDRMKVAELKQELKLRSLPVSGTKTELIERLRAYQDQ [D9R]	0.135 ± 0.054
GALPANLDGMKVAELKQELKLRSLPVSGTKTELIERLRAYQDQ [D9G]	0.13 ± 0.062
GALPANLDDMKIAELKQELKLRSLPVSGTKTELIERLRAYQDQ [V12I]	-0.177 ± 0.13
GALPANLDDMKYAELKQELKLRSLPVSGTKTELIERLRAYQDQ [V12Y]	-0.585 ± 0.3
GALPANLDDMKNAELKQELKLRSLPVSGTKTELIERLRAYQDQ [V12N]	-0.647 ± 0.11
GALPANLDDMKCAELKQELKLRSLPVSGTKTELIERLRAYQDQ [V12C]	-0.212 ± 0.13
GALPANLDDMKWAELKQELKLRSLPVSGTKTELIERLRAYQDQ [V12W]	-0.374 ± 0.099
GALPANLDDMKFAELKQELKLRSLPVSGTKTELIERLRAYQDQ [V12F]	-0.037 ± 0.11
GALPANLDDMKGAELKQELKLRSLPVSGTKTELIERLRAYQDQ [V12G]	-0.218 ± 0.064
GALPANLDDMKSAELKQELKLRSLPVSGTKTELIERLRAYQDQ [V12S]	-0.336 ± 0.1
GALPANLDDMKRAELKQELKLRSLPVSGTKTELIERLRAYQDQ [V12R]	-0.177 ± 0.073
GALPANLDDMKMAELKQELKLRSLPVSGTKTELIERLRAYQDQ [V12M]	0.199 ± 0.13
GALPANLDDMKEAELKQELKLRSLPVSGTKTELIERLRAYQDQ [V12E]	0.098 ± 0.081
GALPANLDDMKQAELKQELKLRSLPVSGTKTELIERLRAYQDQ [V12Q]	-0.552 ± 0.42
GALPANLDDMKDAELKQELKLRSLPVSGTKTELIERLRAYQDQ [V12D]	-0.363 ± 0.089
GALPANLDDMKAAELKQELKLRSLPVSGTKTELIERLRAYQDQ [V12A]	-0.029 ± 0.13
GALPANLDDMKLAELKQELKLRSLPVSGTKTELIERLRAYQDQ [V12L]	0.164 ± 0.11
GALPANLDDQKVAELKQELKLRSLPVSGTKTELIERLRAYQDQ [M10Q]	-0.434 ± 0.13
GALPANLDDCKVAELKQELKLRSLPVSGTKTELIERLRAYQDQ [M10C]	-0.441 ± 0.13
GALPANLDDLKVAELKQELKLRSLPVSGTKTELIERLRAYQDQ [M10L]	-0.222 ± 0.1

Variant	abundance fitness
GALPANLDDGKVAELKQELKLRSLPVSGTKTELIERLRAYQDQ [M10G]	-0.839 ± 0.071
GALPANLDDYKVAELKQELKLRSLPVSGTKTELIERLRAYQDQ [M10Y]	-0.068 ± 0.45
GALPANLDDIKVAELKQELKLRSLPVSGTKTELIERLRAYQDQ [M10I]	-0.302 ± 0.18
GALPANLDDEKVAELKQELKLRSLPVSGTKTELIERLRAYQDQ [M10E]	-0.979 ± 0.14
GALPANLDDPKVAELKQELKLRSLPVSGTKTELIERLRAYQDQ [M10P]	-0.531 ± 0.13
GALPANLDDRKVAELKQELKLRSLPVSGTKTELIERLRAYQDQ [M10R]	-0.537 ± 0.058
GALPANLDDDKVAELKQELKLRSLPVSGTKTELIERLRAYQDQ [M10D]	-0.894 ± 0.15
GALPANLDDTKVAELKQELKLRSLPVSGTKTELIERLRAYQDQ [M10T]	-0.568 ± 0.12
GALPANLDDKKVAELKQELKLRSLPVSGTKTELIERLRAYQDQ [M10K]	-0.151 ± 0.45
GALPANLDDSKVAELKQELKLRSLPVSGTKTELIERLRAYQDQ [M10S]	-0.256 ± 0.09
GALPANLDDVKVAELKQELKLRSLPVSGTKTELIERLRAYQDQ [M10V]	-0.872 ± 0.074
GALPANLDDWKVAELKQELKLRSLPVSGTKTELIERLRAYQDQ [M10W]	-0.41 ± 0.091
GALPANLDDAKVAELKQELKLRSLPVSGTKTELIERLRAYQDQ [M10A]	-0.104 ± 0.082
GALPANLDDNKVAELKQELKLRSLPVSGTKTELIERLRAYQDQ [M10N]	-0.425 ± 0.14
GALPANLDDMKVAEDKQELKLRSLPVSGTKTELIERLRAYQDQ [L15D]	-0.369 ± 0.18
GALPANLDDMKVAEEKQELKLRSLPVSGTKTELIERLRAYQDQ [L15E]	-0.604 ± 0.14
GALPANLDDMKVAEFKQELKLRSLPVSGTKTELIERLRAYQDQ [L15F]	-0.466 ± 0.23
GALPANLDDMKVAEAKQELKLRSLPVSGTKTELIERLRAYQDQ [L15A]	-0.336 ± 0.11
GALPANLDDMKVAECKQELKLRSLPVSGTKTELIERLRAYQDQ [L15C]	-0.999 ± 0.27
